Settings in all cases: both partners purified
In test [1] the target is T1, human Hsp90β (human, UniProt P08238 1-724).
T1 construct: Hsp90β, human; source: E. coli BL21 (DE3), purified (HisTrap, Resource Q, Superdex size exclusion)
The experiment in a line: AUC; sedimentation velocity with fluorescence detection; 600 nM ATTO 488-labelled GRLBDm, 3 μM unlabelled chaperones and cofactors, no nucleotide; 20 mM HEPES, 20 mM KCl, 5 mM MgCl2, 50 μM dexamethasone, pH 7.5; 42,000 rpm, 20 °C.

The target of test [2] is T2, C. elegans Hsp90 (HSP-90) (C. elegans, UniProt Q18688 1-702).
T2 construct: HSP-90 (Hsp90 homolog), C. elegans; also called nematode HSP-90; nematode Hsp90; source: E. coli BL21 (DE3), purified (HisTrap, Resource Q, Superdex size exclusion)
The experiment in a line: AUC; sedimentation velocity with fluorescence detection; 600 nM ATTO 488-labelled GRLBDm, 3 μM unlabelled chaperones and cofactors, 2 mM ATPγS; 20 mM HEPES, 20 mM KCl, 5 mM MgCl2, 50 μM dexamethasone, pH 7.5; 42,000 rpm, 20 °C.

Test [3] concerns the target T2, C. elegans Hsp90 (HSP-90). Kind of test: AUC; sedimentation velocity with fluorescence detection; 600 nM ATTO 488-labelled GRLBDm, 3 μM unlabelled chaperones and cofactors, no nucleotide; 20 mM HEPES, 20 mM KCl, 5 mM MgCl2, 50 μM dexamethasone, pH 7.5; 42,000 rpm, 20 °C.
Test [4] addresses T1, human Hsp90β. Kind of test: AUC; sedimentation velocity with fluorescence detection; 600 nM ATTO 488-labelled GRLBDm, 3 μM unlabelled chaperones and cofactors, 2 mM ATPγS; 20 mM HEPES, 20 mM KCl, 5 mM MgCl2, 50 μM dexamethasone, pH 7.5; 42,000 rpm, 20 °C.

T1 sequence (P08238 whole entry): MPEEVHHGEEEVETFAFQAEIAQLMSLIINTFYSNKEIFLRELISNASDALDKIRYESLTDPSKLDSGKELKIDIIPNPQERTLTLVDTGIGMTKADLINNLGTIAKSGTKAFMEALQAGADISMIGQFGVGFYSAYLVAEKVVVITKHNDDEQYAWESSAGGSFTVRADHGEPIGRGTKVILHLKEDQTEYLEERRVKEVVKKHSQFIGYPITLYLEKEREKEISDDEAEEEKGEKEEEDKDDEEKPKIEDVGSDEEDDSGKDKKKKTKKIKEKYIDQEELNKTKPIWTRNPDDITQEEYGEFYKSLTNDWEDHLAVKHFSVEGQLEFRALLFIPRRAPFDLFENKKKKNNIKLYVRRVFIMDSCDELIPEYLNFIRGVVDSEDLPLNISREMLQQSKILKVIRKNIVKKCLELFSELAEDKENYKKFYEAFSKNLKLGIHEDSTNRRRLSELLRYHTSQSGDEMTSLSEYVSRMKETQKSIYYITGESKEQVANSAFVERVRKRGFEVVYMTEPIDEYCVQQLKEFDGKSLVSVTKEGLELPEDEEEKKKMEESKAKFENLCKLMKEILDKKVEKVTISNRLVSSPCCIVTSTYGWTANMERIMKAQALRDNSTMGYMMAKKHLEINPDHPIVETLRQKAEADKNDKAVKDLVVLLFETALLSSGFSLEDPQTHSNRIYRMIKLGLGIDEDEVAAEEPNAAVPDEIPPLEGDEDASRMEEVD

B1: human protein phosphatase Pp5 (enzyme, UniProt P53041 1-499, looked up)
chain: MAMAEGERTECAEPPRDEPPADGALKRAEELKTQANDYFKAKDYENAIKFYSQAIELNPSNAIYYGNRSLAYLRTECYGYALGDATRAIELDKKYIKGYYRRAASNMALGKFRAALRDYETVVKVKPHDKDAKMKYQECNKIVKQKAFERAIAGDEHKRSVVDSLDIESMTIEDEYSGPKLEDGKVTISFMKELMQWYKDQKKLHRKCAYQILVQVKEVLSKLSTLVETTLKETEKITVCGDTHGQFYDLLNIFELNGLPSETNPYIFNGDFVDRGSFSVEVILTLFGFKLLYPDHFHLLRGNHETDNMNQIYGFEGEVKAKYTAQMYELFSEVFEWLPLAQCINGKVLIMHGGLFSEDGVTLDDIRKIERNRQPPDSGPMCDLLWSDPQPQNGRSISKRGVSCQFGPDVTKAFLEENNLDYIIRSHEVKAEGYEVAHGGRCVTVFSAPNYCDQMGNKASYIHLQGSDLRPQFHQFTAVPHPNVKPMAYANTLLQLGMM
notes: Pp5 (serine/threonine protein phosphatase 5), human; source: E. coli BL21 (DE3), purified (HisTrap, Resource Q, Superdex size exclusion)
As for B1, the binding result with human Hsp90β [1] is “binds”.

B2: FKB-6, nematode large prolyl isomerase (FK1, FK2 and TPR domains) (enzyme, C. elegans, UniProt O45418 1-431, looked up)
chain: MSGEKIDITPKKDGGVLKLIKKEGQGVVKPTTGTTVKVHYVGTLENGTKFDSSRDRGDQFSFNLGRGNVIKGWDLGVATMTKGEVAEFTIRSDYGYGDAGSPPKIPGGATLIFEVELFEWSAEDISPDRDGTILRTIIVEGSKNSFPNDTSKVLAHCVGTYQGTEFYNREVNFHIGEGSEEGLPEGVERALRRFQLGEKSKIEIRGHKYTYGNSPPAGSNIPVNATLEFTIFLKEFEKVPATWEMTAEEKLDAAKQAKDRGTMYLQKGNLKLAYNKYKRAEEVLEYEKSTDPEKMAERETILNGAYLNLSLVCSKQNEQLECIKWCDKVLETKPGNVKALYRKATALLTMNEVRDAMKLFEKIVEVEPENKAAAQQIIVCRNTIREQNERDKKRFKNLFAKISTEEDKPTNTVEDEDEIVASTSGSSTSNA
notes: FKB-6, peptidyl prolyl isomerase with FK1, FK2 and C-terminal TPR region, C. elegans; source: E. coli BL21 (DE3), purified (HisTrap, Resource Q, Superdex size exclusion)
In the case of B2, the binding result in test [2] was “binds”.

B3: human Fkbp51 (enzyme, UniProt Q13451 1-457, looked up)
chain: MTTDEGAKNNEESPTATVAEQGEDITSKKDRGVLKIVKRVGNGEETPMIGDKVYVHYKGKLSNGKKFDSSHDRNEPFVFSLGKGQVIKAWDIGVATMKKGEICHLLCKPEYAYGSAGSLPKIPSNATLFFEIELLDFKGEDLFEDGGIIRRTKRKGEGYSNPNEGATVEIHLEGRCGGRMFDCRDVAFTVGEGEDHDIPIGIDKALEKMQREEQCILYLGPRYGFGEAGKPKFGIEPNAELIYEVTLKSFEKAKESWEMDTKEKLEQAAIVKEKGTVYFKGGKYMQAVIQYGKIVSWLEMEYGLSEKESKASESFLLAAFLNLAMCYLKLREYTKAVECCDKALGLDSANEKGLYRRGEAQLLMNEFESAKGDFEKVLEVNPQNKAARLQISMCQKKAKEHNERDRRIYANMFKKFAEQDAKEEANKAMGKKTSEGVTNEKGTDSQAMEEEKPEGHV
notes: Fkbp51, human PPIase; source: E. coli BL21 (DE3), purified (HisTrap, Resource Q, Superdex size exclusion)
For B3, the binding result in the test with human Hsp90β [1] is on record as “binds”.

B4: STI-1, nematode TPR cofactor of HSP-90 (homolog of human Hop) (natural protein, C. elegans, UniProt O16259 1-320, looked up)
chain: MTDAAIAEKDLGNAAYKQKDFEKAHVHYDKAIELDPSNITFYNNKAAVYFEEKKFAECVQFCEKAVEVGRETRADYKLIAKAMSRAGNAFQKQNDLSLAVQWFHRSLSEFRDPELVKKVKELEKQLKAAERLAYINPELAQEEKNKGNEYFKKGDYPTAMRHYNEAVKRDPENAILYSNRAACLTKLMEFQRALDDCDTCIRLDSKFIKGYIRKAACLVAMREWSKAQRAYEDALQVDPSNEEAREGVRNCLRSNDEDPEKAKERSLADPEVQEILRDPGMRMILEQMSNDPGAVREHLKNPEIFQKLMKLRDAGVIQMR
notes: STI-1, C. elegans; source: E. coli BL21 (DE3), purified (HisTrap, Resource Q, Superdex size exclusion)
In the case of B4, in test [3], the binding result is “binds”.

B5: human p23 (natural protein, UniProt Q15185 1-160, looked up)
chain: MQPASAKWYDRRDYVFIEFCVEDSKDVNVNFEKSKLTFSCLGGSDNFKHLNEIDLFHCIDPNDSKHKRTDRSILCCLRKGESGQSWPRLTKERAKLNWLSVDFNNWKDWEDDSDEDMSNFDRFSEMMNNMGGDEDVDLPEVDGADDDSQDSDDEKMPDLE
notes: p23 co-chaperone, human; source: E. coli BL21 (DE3), purified (HisTrap, Resource Q, Superdex size exclusion)
For B5, the binding result with human Hsp90β [4] was “binds”.

B6: PPH-5, nematode protein phosphatase, homolog of human Pp5 (enzyme, C. elegans, UniProt Q9NES8 1-496, looked up)
chain: MAATITDDIVATVLESIEEKSYEDEKEKAGMIKDEANQFFKDQVYDVAADLYSVAIEIHPTAVLYGNRAQAYLKKELYGSALEDADNAIAIDPSYVKGFYRRATANMALGRFKKALTDYQAVVKVCPNDKDARAKFDECSKIVRRQKFEAAISTDHDKKTVAETLDINAMAIEDSYDGPRLEDKITKEFVLQLIKTFKNQQKLHKKYAFKMLLEFYNYVKSLPTMVEITVPTGKKFTICGDVHGQFYDLCNIFEINGYPSETNPYLFNGDFVDRGSFSVETIFTMIGFKLLYPNHFFMSRGNHESDVMNKMYGFEGEVKAKYTQQMCDMFTETFCWLPLCHLINEKIFVCHGGLFKEDGVTLEDIRKTDRNRQPPDEGIMCDLLWSDPQPINGRSPSKRGVGCQFGPDVTSKWCETNGIEYVVRSHEVKPEGYEMHHNGQCFTVFSAPNYCDQMNNKGAFITITGDNLTPRFTPFDAVPHPKLPPMAYANSLFGFN
notes: PPH-5, TPR-containing serine/threonine phosphatase, C. elegans; source: E. coli BL21 (DE3), purified (HisTrap, Resource Q, Superdex size exclusion)
As for B6, the binding result in test [2] was “binds”.

B7: human Fkbp52 (enzyme, UniProt Q02790 1-459, looked up)
chain: MTAEEMKATESGAQSAPLPMEGVDISPKQDEGVLKVIKREGTGTEMPMIGDRVFVHYTGWLLDGTKFDSSLDRKDKFSFDLGKGEVIKAWDIAIATMKVGEVCHITCKPEYAYGSAGSPPKIPPNATLVFEVELFEFKGEDLTEEEDGGIIRRIQTRGEGYAKPNEGAIVEVALEGYYKDKLFDQRELRFEIGEGENLDLPYGLERAIQRMEKGEHSIVYLKPSYAFGSVGKEKFQIPPNAELKYELHLKSFEKAKESWEMNSEEKLEQSTIVKERGTVYFKEGKYKQALLQYKKIVSWLEYESSFSNEEAQKAQALRLASHLNLAMCHLKLQAFSAAIESCNKALELDSNNEKGLFRRGEAHLAVNDFELARADFQKVLQLYPNNKAAKTQLAVCQQRIRRQLAREKKLYANMFERLAEEENKAKAEASSGDHPTDTEMKEEQKSNTAGSQSQVETEA
notes: Fkbp52, human PPIase; source: E. coli BL21 (DE3), purified (HisTrap, Resource Q, Superdex size exclusion)
As for B7, the binding result with human Hsp90β [1] was “binds”.

Source of the values: publication PMC7329908, “Glucocorticoid receptor complexes form cooperatively with the Hsp90 co-chaperones Pp5 and FKBPs” (Scientific Reports, 2020).
